This is an account of results in patent US20030224397A1 (Genentech, published 2003).

Positions count from the first letter of the chain named. Names and notes keep the numbering of the source. Like-named read-outs stand apart in the source and are kept apart here.

For experiment [1], the target named is T1, short isoform of VEGF (8-109) (UniProt P15692 214-315).
T1 construct: range 8-109; Immobilized by amine coupling for SPR; in solution for the fluorescence assay; also called vascular endothelial growth factor
T1 sequence (looked up): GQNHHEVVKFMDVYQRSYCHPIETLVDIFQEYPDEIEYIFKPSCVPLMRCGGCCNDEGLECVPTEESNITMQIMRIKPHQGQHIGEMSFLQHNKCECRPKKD
As to the kind of experiment: SPR (BIAcore), VEGF immobilized, 25 mM Tris pH 7.2, 0 M NaCl, 37 C. The procedure:
(§1) Dissociation rates were measured by surface plasmon resonance on a BIACORE-2000® instrument (BIAcore, Inc.) as described previously (Muller et al. Structure 6(9): 1153-67 (1998)). VEGF was immobilized by amine coupling to a B1 chip at approximately 10 resonance-response units. Fab binding was measured at 1 μM, 500 nM, 250 nM, 125 nM, 62.5 nM, and 31.3 nM. Dissociation was calculated assuming a one-to-one binding model. All experiments were performed at 37° C. in phosphate buffered saline solution, pH 7.2, containing 0.05% Tween-20, 0.01% NaN3 and at a flow rate of 20 μL min⁻¹.
(§2) Residues are numbered according the Kabat system (Kabat et al. Sequences of Proteins of Immunological Interest, 5th Edition., National Institute of Health, Bethesda, Md. (1991)). k₁ determined by the fluorescence-based assay (±standard deviation of three experiments). k₋₁ determined by surface plasmon resonance (±standard deviation of 12 experiments). k₁ and k₋₁ (0 M NaCl) experiments were performed in 25 mM Tris, pH 7.2, at 37° C. k₋₁ (0.15 M NaCl) experiments performed in 25 mM Tris, 150 mM NaCl, at 25° C.
On the technique in general: SPR reads the build-up and loss of mass on a sensor chip optically.

In experiment [2] the target is T1, short isoform of VEGF (8-109). Briefly: fluorescence-based association assay at varied salt concentration. As to the method: (§3) In the experiments described here, the fluorescence emission intensity (λexcitation=295 nm; λₑₘᵢₛₛᵢₒₙ=340 nm, 16 nm bandpass) was measured using an 8000-series SLM-Aminco spectrophotometer (THERMOSPECTRONIC®) as VEGF was added to a stirred cuvette containing approximately 10 nM Fab in 25 mM Tris, pH 7.2, held at 37° C.

For experiment [3] the target is unchanged. Briefly: fluorescence-based association assay in solution, 25 mM Tris pH 7.2, 37 C. The procedure: as §3, §2
Experiment [4] has the same target. Described as above. As to the method: as §3
The source holds these as a separate data set.

For experiment [5] the target is unchanged. Briefly: SPR (BIAcore), VEGF immobilized, 25 mM Tris, 150 mM NaCl, 25 C.
Experiment [6] has the same target. As to the kind of experiment: calculated from k-1 and k1, 0 M NaCl data.
Experiment [7] has the same target. Briefly: SPR (BIAcore), VEGF immobilized, 25 mM Tris pH 7.2, 0 M NaCl, 37 C. The procedure:
as §1
(§4) Residues are numbered according the Kabat system (Kabat et al. Sequences of Proteins of Immunological Interest, 5th Edition., National Institute of Health, Bethesda, Md. (1991)). k₁ determined by the fluorescence-based assay (±standard deviation of three experiments, wild-type only). k₋₁ determined by surface plasmon resonance (±standard deviation of 12 experiments). k₁ and k₋₁ (0 M NaCl) experiments were performed in 25 mM Tris, pH 7.2, at 37° C. k₋₁ (0.15 M NaCl) experiments performed in 25 mM Tris, 150 mM NaCl, at 25° C.
This is another data set of the same source.

The target is the same in experiment [8]. As to the kind of experiment: calculated from k-1 and k1, 0 M NaCl data. The source holds these as a separate data set.
The target is the same in experiment [9]. As to the kind of experiment: SPR (BIAcore), VEGF immobilized, 25 mM Tris, 150 mM NaCl, 25 C. This is another data set of the same source.
The target is the same in experiment [10]. Briefly: fluorescence-based association assay in solution, 25 mM Tris pH 7.2, 37 C. The procedure: as §3, §4
This is another data set of the same source.

B1: 34-TKKT (VH-(T28D, S100aR)+VL-(S26T, Q27K, D28K, S30T)) (Fab, V domains shown)
VH: EVQLVESGGGLVQPGGSLRLSCAASGYDFTNYGMNWVRQAPGKGLEWVGWINTYTGEPTYAADFKRRFTFSLDTSKSTAYLQMNSLRAEDTAVYYCAKYPHYYGRSHWYFDVWGQGTLVTVSS
VL: DIQLTQSPSSLSASVGDRVTITCSATKKITNYLNWYQQKPGKAPKVLIYFTSSLHSGVPSRFSGSGSGTDFTLTISSLQPEDFATYYCQQYSTVPWTFGQGTKVEIKR
notes: Fab of Y0101 with both altered chains
In the case of B1, the koff – broadly, the first-order rate constant of dissociation – in experiment [1] came to 0.00026 s⁻¹; in [5], 2e-05 s⁻¹. For the same molecule, the “fold difference in association rate against Y0101 in 150 mM NaCl” value in experiment [2] is under 2 fold. Moreover, the kon (in general, a measure of how fast the partners come together) in experiment [3] worked out at 3.3e+06 M⁻¹ s⁻¹. Further, in [4], the “fold higher association rate than Y0101” value was determined as 6 fold. Besides, in experiment [6], the Kd (usually a measure of binding affinity in units of concentration) was 0.08 nM.

B2: Fab Y0101 variant, heavy chain S100aR (Fab, name in Kabat numbering, V domains shown)
VH: B1 VH with D28T
VL: B1 VL with T26S, K27Q, K28D, T30S
notes: Fab of Y0101 with one heavy chain substitution
As for B2, the results for the koff in [7] and in [9] were 0.00024 s⁻¹ and 7e-05 s⁻¹, respectively. Further, the Kd in experiment [8] was 0.3 nM. The molecule further registered a kon in experiment [10] of 870000 M⁻¹ s⁻¹.

B3: Fab Y0101 variant, light chain Y32R (Fab, V domains shown)
VH: B1 VH with D28T, R105S
VL: B1 VL with T26S, K27Q, K28D, T30S, Y32R
notes: Fab of Y0101 with one light chain substitution
B3 displayed a kon in experiment [10] of 710000 M⁻¹ s⁻¹.

B4: Fab Y0101 variant, light chain S26K, Q27K, D28N, S30T (Fab, V domains shown)
VH: B1 VH with D28T, R105S
VL: B1 VL with T26K, K28N
notes: Fab of Y0101 with several light chain substitutions
In experiment [3], B4 came in with an on-rate (kon) of 610000 M⁻¹ s⁻¹.

B5: Fab Y0101 variant, heavy chain T28K (Fab, name in Kabat numbering, V domains shown)
VH: B1 VH with D28K, R105S
VL: B1 VL with T26S, K27Q, K28D, T30S
notes: as for B2
Turning to B5, in experiment [10], the kon was 360000 M⁻¹ s⁻¹.

B6: Fab Y0101 variant, light chain S52K, S53K, L54T (Fab, V domains shown)
VH: B1 VH with D28T, R105S
VL: B1 VL with T26S, K27Q, K28D, T30S, S52K, S53K, L54T
notes: as for B4
In the case of B6, the kon in [3] came to 1.3e+06 M⁻¹ s⁻¹.

B7: Fab Y0101 variant, light chain S26K, D28K, S30K (Fab, V domains shown)
VH: B1 VH with D28T, R105S
VL: B1 VL with T26K, K27Q, T30K
notes: as for B4
In the case of B7, the kon in [3] came to 1.3e+06 M⁻¹ s⁻¹.

B8: Fab Y0101 variant, heavy chain T28D, S100aR (Fab, V domains shown)
VH: B1 VH
VL: B1 VL with T26S, K27Q, K28D, T30S
notes: Fab; also called altered heavy chain T28D-S100aR
On to B8, for which the kon in [3] was found to be 1.4e+06 M⁻¹ s⁻¹. The koff in experiment [5] was 0.00011 s⁻¹.

B9: Fab Y0101 variant, heavy chain E56K (Fab, name in Kabat numbering, V domains shown)
VH: B1 VH with D28T, E57K, R105S
VL: B1 VL with T26S, K27Q, K28D, T30S
notes: as for B2
Turning to B9, the koff in [7] was 0.00044 s⁻¹. In addition, in experiment [8], the Kd was 0.9 nM. The kon in experiment [10] is 480000 M⁻¹ s⁻¹.

B10: Fab Y0101 variant, heavy chain Y99K (Fab, name in Kabat numbering, V domains shown)
VH: B1 VH with D28T, Y103K, R105S
VL: B1 VL with T26S, K27Q, K28D, T30S
notes: as for B2
B10: the results for the koff in [7] and in experiment [9] were 0.00015 s⁻¹ and 0.00014 s⁻¹, respectively. The equilibrium dissociation constant (Kd) in experiment [8] was 0.4 nM. Also, the kon in [10] amounted to 380000 M⁻¹ s⁻¹.

B11: Fab Y0101 variant, light chain L54K (Fab, V domains shown)
VH: B1 VH with D28T, R105S
VL: B1 VL with T26S, K27Q, K28D, T30S, L54K
notes: as for B3
For the molecule B11, the kon in [10] worked out at 440000 M⁻¹ s⁻¹.

B12: Fab Y0101 variant, heavy chain Y99R (Fab, name in Kabat numbering, V domains shown)
VH: B1 VH with D28T, Y103R, R105S
VL: B1 VL with T26S, K27Q, K28D, T30S
notes: as for B2
Consider B12, for which the koff is 0.00014 s⁻¹ in experiment [7] and 0.00016 s⁻¹ in experiment [9]. The Kd in [8] was 0.2 nM. Also, the kon in [10] came out at 600000 M⁻¹ s⁻¹.
